Source: publication PMC7857493

Columns and labels:
[1] = biological target: T1, Human neutrophil-derived myeloperoxidase (nMPO) (human), P05164; assay: native MS; whole unfractionated intact nMPO infused by nano-ESI (gold-coated capillaries) into a modified Q-Exactive, positive ion polarity
[2] = biological target: T1, Human neutrophil-derived …; assay: mass photometry; single-molecule mass photometry of intact nMPO on coverslips with silicone gaskets; apparent; diprotomer (ααββ) to monoprotomers (αβ)

B1: Human neutrophil-derived myeloperoxidase (nMPO), P05164 279-745; P05164 279-745 (enzyme)
chain 1: not shown
chain 2: VNCETSCVQQPPCFPLKIPPNDPRIKNQADCIPFFRSCPACPGSNITIRNQINALTSFVDASMVYGSEEPLARNLRNMSNQLGLLAVNQRFQDNGRALLPFDNLHDDPCLLTNRSARIPCFLAGDTRSSEMPELTSMHTLLLREHNRLATELKSLNPRWDGERLYQEARKIVGAMVQIITYRDYLPLVLGPTAMRKYLPTYRSYNDSVDPRIANVFTNAFRYGHTLIQPFMFRLDNRYQPMEPNPRVPLSRVFFASWRVVLEGGIDPILRGLMATPAKLNRQNQIAVDEIRERLFEQVMRIGLDLPALNMQRSRDHGLPGYNAWRRFCGLPQPETVGQLGTVLRNLKLARKLMEQYGTPNNIDIWMGGVSEPLKRKGRVGPLLACIIGTQFRKLRDGDRFWWENEGVFSMQQRQALAQISLPRIICDNTGITTVSKNNIFMSNSYPRDFVNCSTLPALNLASWREAS
modifications: heme covalently links the α- and β-chains; Met251 and Met253 oxidation and Trp255 oxidation variants; polypeptide truncation variants | N-glycans at Asn323 and Asn483 (mainly paucimannosidic M2F-M3F), Asn355 and Asn391 (mainly oligomannosidic M5-M6), Asn729 (largely unoccupied or GlcNAc1-GlcNAc1F); Met and Trp mono-/di-oxidation, Tyr mono-chlorination; Cys319-Cys319 bridge between the two …
- stoichiometry N [1]: 2
- Kd [2]: 50 pM
- percent diprotomer [2]: 93%
- percent monoprotomer [2]: 7%
- stoichiometry N [2]: 2
